Consider eleven molecules from patent US20230212554A1.

Residue numbers refer to the chain shown, from its start.

The term EC50 denotes the concentration needed to bring the measured effect to its halfway point.

B1: NP19 (antibody, V domains shown)
VH: EVQLVESGGGLVQPGGSLRLSCAASGFTISSWGIHWVRQAPGKGLEWVAGIGPFWGYTSYADSVKGRFTISADTSKNTAYLQMNSLRAEDTAVYYCARFGVDNYGYMDYWGQGTLVTVSS
VL: DIQMTQSPSSLSASVGDRVTITCRASQDVSGWVAWYQQKPGKAPKLLISWSTGLYSGVPSRFSGSGSGTDFTLTISSLQPEDFATYYCQQYFNFPVTFGQGTKVEIKR
B2: NP3 (antibody, V domains shown)
VH: B1 VH with S31N, W32Y, G52W, W55G, Y57F, G100H, V101W, D102N, N103D, Y104H
VL: B1 VL with S30G, G31W, W32Y, S49Y, W50S, S51T, F92Y, F94Y, V96I
B3: NP15 (antibody, V domains shown)
VH: EVQLVESGGGLVQPGGSLRLSCAASGFTISNWYIHWVRQAPGKGLEWVAGIGPYGGSTYYADSVKGRFTISADTSKNTAYLQMNSLRAEDTAVYYCARFHWDHLHGMDYWGQGTLVTVSS
VL: B1 VL with S30D, G31N, W32N, W50Y, F92W, F94Y, V96I
B4: NP16 (antibody, V domains shown)
VH: EVQLVESGGGLVQPGGSLRLSCAASGFTIGNSGIHWVRQAPGKGLEWVAWIGPYWGFTSYADSVKGRFTISADTSKNTAYLQMNSLRAEDTAVYYCARFGNHWHLFMDYWGQGTLVTVSS
VL: B1 VL with S30G, G31S, W32Y, S51T, N93S, F94Y
B5: NP18 (antibody, V domains shown)
VH: EVQLVESGGGLVQPGGSLRLSCAASGFTISGGGIHWVRQAPGKGLEWVASIWPSWGSTSYADSVKGRFTISADTSKNTAYLQMNSLRAEDTAVYYCARFHNGGFLVMDYWGQGTLVTVSS
VL: DIQMTQSSSSLSASVGDRVTITCRASQDVGYYVAWYQQKPGKAPKLLIYGPRFLYSGVPSRFSGSGSGTDFTLTISSLQPEDFATYYCQQYSNWPITFGQGTKVEIKR
B6: NP17 (antibody, V domains shown)
VH: B5 VH with G33S, S54F, W55G, S59F, H100G, N101H, G103H, F104N, L105V, V106I
VL: B1 VL with S30G, G31Y, W32S, W50S, S51P, T52G, F92Y, N93D, F94Y
B7: NP7 (antibody, V domains shown)
VH: EVQLVESGGGLVQPGGSLRLSCAASGFTISNGGIHWVRQAPGKGLEWVAGIGPYGGFTSYADSVKGRFTISADTSKNTAYLQMNSLRAEDTAVYYCARFYSNYYGYHGVMDYWGQGTLVTVSS
VL: B1 VL with S30F, W50Y, T52A, G53S, F94Y, V96L
B8: NP21 (antibody, V domains shown)
VH: EVQLVESGGGLVQPGGSLRLSCAASGFTINGYGIHWVRQAPGKGLEWVAGIWPYGGSTFYADSVKGRFTISADTSKNTAYLQMNSLRAEDTAVYYCARFYNNHGGIMDYWGQGTLVTVSS
VL: B5 VL with S8P, G30Y, Y31F, P51S, F53W, W94F, I96V
B9: NP5 (antibody, V domains shown)
VH: EVQLVESGGGLVQPGGSLRLSCAASGFTISNGSIHWVRQAPGKGLEWVAGIWPSGGSTSYADSVKGRFTISADTINNSAYLQMNSLRAEDTAVYYCARWNYWGQGTLVTVSS
VL: B5 VL with S8P, Y31W, Y32S, P51S, F53W, Y91G, S92Y, W94G, I96L
B10: NP6 (antibody, V domains shown)
VH: EVQLVESGGGLVQPGGSLRLSCAASGFTINDGSIHWVRQAPGKGLEWVAGIGPFGGFTYYADSVKGRFTISADTSKNTAYLQMNSLRAEDTAVYYCARSGYSGSFDYWGQGTLVTVSS
VL: B5 VL with S8P, G30Y, Y31F, Y32G, P51T, R52S, F53Y, Y91F
B11: NP22 (antibody, V domains shown)
VH: EVQLVESGGGLVQPGGSLRLSCAASGFTISDWSIHWVRQAPGKGLEWVAGIWPYWGSTSYADSVKGRFTISADTSKNTAYLQMNSLRAEDTAVYYCARGFYSWFDYWGQGTLVTVSS
VL: DIQMTQSPSSLSASVGDRVTITCRASQDVFSWVAWYQQKPGKAPKLLISSASSLYSGVPSRFSGSGSGTDFTLTISSLQPEDFATYYCQQSWDYPITFGQGTKVEIKR

NP of A/Wisconsin/67/2005(H3N2/H3W) (influenza A virus A/Wisconsin/67/2005 (H3N2)), sequence (P03466 whole entry): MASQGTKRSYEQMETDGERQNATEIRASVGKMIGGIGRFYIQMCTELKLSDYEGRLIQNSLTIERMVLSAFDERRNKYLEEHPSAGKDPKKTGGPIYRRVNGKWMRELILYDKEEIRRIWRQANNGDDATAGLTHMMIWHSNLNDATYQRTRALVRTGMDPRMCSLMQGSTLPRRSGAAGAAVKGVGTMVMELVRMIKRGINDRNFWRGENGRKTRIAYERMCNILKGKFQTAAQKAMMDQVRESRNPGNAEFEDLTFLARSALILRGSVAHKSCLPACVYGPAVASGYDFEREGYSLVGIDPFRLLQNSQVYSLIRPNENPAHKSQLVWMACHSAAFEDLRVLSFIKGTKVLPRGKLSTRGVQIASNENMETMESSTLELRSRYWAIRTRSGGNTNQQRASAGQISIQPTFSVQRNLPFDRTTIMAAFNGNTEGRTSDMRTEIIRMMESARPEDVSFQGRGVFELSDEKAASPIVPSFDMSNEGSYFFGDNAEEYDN

Substrate in the first assay: NP of A/Wisconsin/67/2005(H3N2/H3W) (influenza A virus A/Wisconsin/67/2005 (H3N2))
Nature of the assay: ELISA on virus-infected fixed MDCK cells. In general terms: ELISA stands for enzyme-linked immunosorbent assay.
Regarding B1, the EC50 turned out to be 0.215 nM.

Take B2: the EC50 turned out to be 0.25 nM.

B3: the EC50 is 0.449 nM.

Regarding B4, the EC50 was determined as 0.248 nM.

As for B5, the EC50 was determined as 0.192 nM.

Substrate in a further assay: NP of A/Wisconsin/67/2005(H3N2/H3W) (influenza A virus A/Wisconsin/67/2005 (H3N2))
Nature of the assay: sandwich ELISA, capture IgG; NP of lysed virus titrated; HRP-NP16 detection.
Regarding B1, the EC50 stood at 3.88 nM.

As for B2, the EC50 was found to be 1.81 nM.

Regarding B3, the EC50 was 2.52 nM.

In the case of B6, the EC50 was determined as 3.09 nM.

Regarding B4, the EC50 is 4.1 nM.

Consider B7, for which the EC50 was determined as 2.26 nM.

In the case of B8, the EC50 is 2.88 nM.

For the molecule B9, the EC50 turned out to be 3.13 nM.

B10: the EC50 was found to be 2.7 nM.

With B11, the EC50 is 91.4 nM.

Substrate in a further assay: NP of A/Wisconsin/67/2005(H3N2/H3W) (influenza A virus A/Wisconsin/67/2005 (H3N2))
Nature of the assay: sandwich ELISA, capture IgG; NP of lysed virus titrated; HRP-NP17 detection.
Turning to B1, the EC50 came out at 0.765 nM.

B2: the EC50 is 0.828 nM.

With B3, the EC50 came out at 0.779 nM.

Regarding B6, the EC50 came out at 1.07 nM.

Consider B4, for which the EC50 turned out to be 0.891 nM.

Consider B7, for which the EC50 is 0.821 nM.

As for B8, the EC50 came out at 0.848 nM.

In the case of B9, the EC50 is 0.879 nM.

For the molecule B5, the concentration giving a half-maximal response (EC50) is 1000 nM.

As to B10, the EC50 was 1.98 nM.

In the case of B11, the EC50 is 82.8 nM.
